{
  "source": "paper PMC10786891",
  "about": "“Massively parallel profiling of RNA-targeting CRISPR-Cas13d”",
  "data": [
    {"molecular_target": "T1, EsCas13d, nuclease-dead (Eubacterium siraeum, UniProt B0MS50, R295A;H300A;R849A;H854A)", "T1 sequence": "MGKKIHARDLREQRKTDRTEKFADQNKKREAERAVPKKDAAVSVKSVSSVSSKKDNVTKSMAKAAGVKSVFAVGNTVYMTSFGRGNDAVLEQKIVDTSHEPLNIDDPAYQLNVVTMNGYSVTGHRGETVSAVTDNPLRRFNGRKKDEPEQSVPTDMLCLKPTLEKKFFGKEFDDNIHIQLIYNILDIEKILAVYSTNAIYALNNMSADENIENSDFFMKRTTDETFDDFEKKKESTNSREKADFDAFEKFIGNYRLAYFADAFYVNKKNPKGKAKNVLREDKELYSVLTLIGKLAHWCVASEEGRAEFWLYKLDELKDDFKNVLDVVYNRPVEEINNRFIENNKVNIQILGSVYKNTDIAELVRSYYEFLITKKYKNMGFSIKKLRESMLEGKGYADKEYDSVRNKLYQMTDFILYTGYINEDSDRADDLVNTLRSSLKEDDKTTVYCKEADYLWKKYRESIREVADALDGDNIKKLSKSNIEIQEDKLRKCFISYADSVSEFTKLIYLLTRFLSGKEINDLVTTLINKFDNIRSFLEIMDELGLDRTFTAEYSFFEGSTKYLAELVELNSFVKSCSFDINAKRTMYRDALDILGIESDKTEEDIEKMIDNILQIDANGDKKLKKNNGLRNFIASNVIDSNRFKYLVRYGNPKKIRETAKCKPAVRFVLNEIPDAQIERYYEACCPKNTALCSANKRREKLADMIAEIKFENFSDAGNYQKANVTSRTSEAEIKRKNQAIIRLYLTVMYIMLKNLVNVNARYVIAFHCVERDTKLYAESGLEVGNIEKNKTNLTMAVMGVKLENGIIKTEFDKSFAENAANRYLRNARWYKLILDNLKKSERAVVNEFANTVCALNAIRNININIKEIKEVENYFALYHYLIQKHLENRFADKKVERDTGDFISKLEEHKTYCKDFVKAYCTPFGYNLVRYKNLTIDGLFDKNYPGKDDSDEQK", "assay": "crRNA (strand 1, pre-loaded); Mg2+; 40 mM Tris-HCl pH 7.5, 150 mM NaCl, 6 mM MgCl2, 1 mM DTT, 0.1% Tween-20, 0.2 mg/ml BSA; 25 C; 10 min per concentration, then washed", "details": "tags: His6-TwinStrep-SUMO cleaved; N-terminal SNAP kept (SNAP-Surface 488); label: 3' end held by stalled T7 RNA polymerase", "units": {"Kd": "nM"}, "values": [
      {"binder": "target 1 MT 5'PFS UCC 3'PFS CAU (mixed) RNA 1: CACCCGUGCAAAAAUGCAGGGGUCUAAAACUGAGCGGAUAACCUCUCUAUGG RNA 2: GGGAAUGGAUCCACAUCUACGAAUUCUCCCCAUAGAGAGGUUAUCCGCUCACAUAGAUCGGAAGAGCACACGU", "Kd": "13 ± 5.5"},
      {"binder": "target 1 MT 5'PFS CAC 3'PFS AAG (mixed) RNA 1: CACCCGUGCAAAAAUGCAGGGGUCUAAAACUGAGCGGAUAACCUCUCUAUGG RNA 2: GGGAAUGGAUCCACAUCUACGAAUUCCACCCAUAGAGAGGUUAUCCGCUCAAAGAGAUCGGAAGAGCACACGU", "Kd": "42 ± 17"},
      {"binder": "target 1 MT 5'PFS GGG 3'PFS AGU (mixed) RNA 1: CACCCGUGCAAAAAUGCAGGGGUCUAAAACUGAGCGGAUAACCUCUCUAUGG RNA 2: GGGAAUGGAUCCACAUCUACGAAUUCGGGCCAUAGAGAGGUUAUCCGCUCAAGUAGAUCGGAAGAGCACACGU", "Kd": "30.4 ± 4.65"},
      {"binder": "target 1 MT 5'PFS GAC 3'PFS AAU (mixed) RNA 1: CACCCGUGCAAAAAUGCAGGGGUCUAAAACUGAGCGGAUAACCUCUCUAUGG RNA 2: GGGAAUGGAUCCACAUCUACGAAUUCGACCCAUAGAGAGGUUAUCCGCUCAAAUAGAUCGGAAGAGCACACGU", "Kd": "~50"},
      {"binder": "target 1 MT 5'PFS ACU 3'PFS CCG (mixed) RNA 1: CACCCGUGCAAAAAUGCAGGGGUCUAAAACUGAGCGGAUAACCUCUCUAUGG RNA 2: GGGAAUGGAUCCACAUCUACGAAUUCACUCCAUAGAGAGGUUAUCCGCUCACCGAGAUCGGAAGAGCACACGU", "Kd": "~115"},
      {"binder": "target 1 MT 5'PFS UCG 3'PFS CUU (mixed) RNA 1: CACCCGUGCAAAAAUGCAGGGGUCUAAAACUGAGCGGAUAACCUCUCUAUGG RNA 2: GGGAAUGGAUCCACAUCUACGAAUUCUCGCCAUAGAGAGGUUAUCCGCUCACUUAGAUCGGAAGAGCACACGU", "Kd": "24.5 ± 6.5"},
      {"binder": "target 1 MT 5'PFS GGG 3'PFS AGC (mixed) RNA 1: CACCCGUGCAAAAAUGCAGGGGUCUAAAACUGAGCGGAUAACCUCUCUAUGG RNA 2: GGGAAUGGAUCCACAUCUACGAAUUCGGGCCAUAGAGAGGUUAUCCGCUCAAGCAGAUCGGAAGAGCACACGU", "Kd": "20.5 ± 4.5"},
      {"binder": "target 1 MT 5'PFS GGG 3'PFS AGA (mixed) RNA 1: CACCCGUGCAAAAAUGCAGGGGUCUAAAACUGAGCGGAUAACCUCUCUAUGG RNA 2: GGGAAUGGAUCCACAUCUACGAAUUCGGGCCAUAGAGAGGUUAUCCGCUCAAGAAGAUCGGAAGAGCACACGU", "Kd": "23.9 ± 3.1"},
      {"binder": "target 1 MT 5'PFS UCG 3'PFS UAA (mixed) RNA 1: CACCCGUGCAAAAAUGCAGGGGUCUAAAACUGAGCGGAUAACCUCUCUAUGG RNA 2: GGGAAUGGAUCCACAUCUACGAAUUCUCGCCAUAGAGAGGUUAUCCGCUCAUAAAGAUCGGAAGAGCACACGU", "Kd": "86.5 ± 38.5"},
      {"binder": "target 1 MT 5'PFS GGG 3'PFS GGG (mixed) RNA 1: CACCCGUGCAAAAAUGCAGGGGUCUAAAACUGAGCGGAUAACCUCUCUAUGG RNA 2: GGGAAUGGAUCCACAUCUACGAAUUCGGGCCAUAGAGAGGUUAUCCGCUCAGGGAGAUCGGAAGAGCACACGU", "Kd": "65.5 ± 14"},
      {"binder": "target 1 MT 5'PFS AGA 3'PFS AGC (mixed) RNA 1: CACCCGUGCAAAAAUGCAGGGGUCUAAAACUGAGCGGAUAACCUCUCUAUGG RNA 2: GGGAAUGGAUCCACAUCUACGAAUUCAGACCAUAGAGAGGUUAUCCGCUCAAGCAGAUCGGAAGAGCACACGU", "Kd": "~42.5"},
      {"binder": "target 1 G12A,A20C (mixed) RNA 1: CACCCGUGCAAAAAUGCAGGGGUCUAAAACUGAGCGGAUAACCUCUCUAUGG RNA 2: GGGAAUGGAUCCACAUCUACGAAUUCGUACCCUAGAGAGAUUAUCCGCUCACCGAGAUCGGAAGAGCACACGU", "Kd": "42 ± 9"},
      {"binder": "target 1 MT 5'PFS UCG 3'PFS UAU (mixed) RNA 1: CACCCGUGCAAAAAUGCAGGGGUCUAAAACUGAGCGGAUAACCUCUCUAUGG RNA 2: GGGAAUGGAUCCACAUCUACGAAUUCUCGCCAUAGAGAGGUUAUCCGCUCAUAUAGAUCGGAAGAGCACACGU", "Kd": "27 ± 5.5"},
      {"binder": "target 1 MT 5'PFS CUA 3'PFS CUC (mixed) RNA 1: CACCCGUGCAAAAAUGCAGGGGUCUAAAACUGAGCGGAUAACCUCUCUAUGG RNA 2: GGGAAUGGAUCCACAUCUACGAAUUCCUACCAUAGAGAGGUUAUCCGCUCACUCAGAUCGGAAGAGCACACGU", "Kd": "7.15 ± 3.05"},
      {"binder": "target 1 MT 5'PFS AGA 3'PFS AGU (mixed) RNA 1: CACCCGUGCAAAAAUGCAGGGGUCUAAAACUGAGCGGAUAACCUCUCUAUGG RNA 2: GGGAAUGGAUCCACAUCUACGAAUUCAGACCAUAGAGAGGUUAUCCGCUCAAGUAGAUCGGAAGAGCACACGU", "Kd": "44.5 ± 18"},
      {"binder": "target 1 MT 5'PFS AGA 3'PFS AGA (mixed) RNA 1: CACCCGUGCAAAAAUGCAGGGGUCUAAAACUGAGCGGAUAACCUCUCUAUGG RNA 2: GGGAAUGGAUCCACAUCUACGAAUUCAGACCAUAGAGAGGUUAUCCGCUCAAGAAGAUCGGAAGAGCACACGU", "Kd": "70.5 ± 31.5"},
      {"binder": "target 1 insC 3' of 13,insG 3' of 3 (mixed) RNA 1: CACCCGUGCAAAAAUGCAGGGGUCUAAAACUGAGCGGAUAACCUCUCUAUGG RNA 2: GGGAAUGGAUCCACAUCUACGAAUUCGUACCAUAGAGAGCGUUAUCCGCUGCACCGAGAUCGGAAGAGCACACGU", "Kd": "5.58 ± 0.3"},
      {"binder": "target 1 MT 5'PFS UAG 3'PFS UGA (mixed) RNA 1: CACCCGUGCAAAAAUGCAGGGGUCUAAAACUGAGCGGAUAACCUCUCUAUGG RNA 2: GGGAAUGGAUCCACAUCUACGAAUUCUAGCCAUAGAGAGGUUAUCCGCUCAUGAAGAUCGGAAGAGCACACGU", "Kd": "34.5 ± 8"},
      {"binder": "target 1 MT 5'PFS GGG 3'PFS GGC (mixed) RNA 1: CACCCGUGCAAAAAUGCAGGGGUCUAAAACUGAGCGGAUAACCUCUCUAUGG RNA 2: GGGAAUGGAUCCACAUCUACGAAUUCGGGCCAUAGAGAGGUUAUCCGCUCAGGCAGAUCGGAAGAGCACACGU", "Kd": "26.5 ± 5"},
      {"binder": "target 1 U3C,C6U (mixed) RNA 1: CACCCGUGCAAAAAUGCAGGGGUCUAAAACUGAGCGGAUAACCUCUCUAUGG RNA 2: GGGAAUGGAUCCACAUCUACGAAUUCGUACCAUAGAGAGGUUAUCUGCCCACCGAGAUCGGAAGAGCACACGU", "Kd": "14.4 ± 1.9"},
      {"binder": "target 1 MT 5'PFS UCG 3'PFS UAC (mixed) RNA 1: CACCCGUGCAAAAAUGCAGGGGUCUAAAACUGAGCGGAUAACCUCUCUAUGG RNA 2: GGGAAUGGAUCCACAUCUACGAAUUCUCGCCAUAGAGAGGUUAUCCGCUCAUACAGAUCGGAAGAGCACACGU", "Kd": "22.5 ± 9"},
      {"binder": "target 1 MT 5'PFS GGG 3'PFS AGG (mixed) RNA 1: CACCCGUGCAAAAAUGCAGGGGUCUAAAACUGAGCGGAUAACCUCUCUAUGG RNA 2: GGGAAUGGAUCCACAUCUACGAAUUCGGGCCAUAGAGAGGUUAUCCGCUCAAGGAGAUCGGAAGAGCACACGU", "Kd": "50.5 ± 8.5"},
      {"binder": "target 1 MT 5'PFS AUU 3'PFS AAG (mixed) RNA 1: CACCCGUGCAAAAAUGCAGGGGUCUAAAACUGAGCGGAUAACCUCUCUAUGG RNA 2: GGGAAUGGAUCCACAUCUACGAAUUCAUUCCAUAGAGAGGUUAUCCGCUCAAAGAGAUCGGAAGAGCACACGU", "Kd": "95 ± 40"},
      {"binder": "target 1 MT 5'PFS CAC 3'PFS AAC (mixed) RNA 1: CACCCGUGCAAAAAUGCAGGGGUCUAAAACUGAGCGGAUAACCUCUCUAUGG RNA 2: GGGAAUGGAUCCACAUCUACGAAUUCCACCCAUAGAGAGGUUAUCCGCUCAAACAGAUCGGAAGAGCACACGU", "Kd": "~34.5"},
      {"binder": "target 1 MT 5'PFS CUU 3'PFS CGC (mixed) RNA 1: CACCCGUGCAAAAAUGCAGGGGUCUAAAACUGAGCGGAUAACCUCUCUAUGG RNA 2: GGGAAUGGAUCCACAUCUACGAAUUCCUUCCAUAGAGAGGUUAUCCGCUCACGCAGAUCGGAAGAGCACACGU", "Kd": "18 ± 6"},
      {"binder": "target 1 MT 5'PFS GAC 3'PFS AAG (mixed) RNA 1: CACCCGUGCAAAAAUGCAGGGGUCUAAAACUGAGCGGAUAACCUCUCUAUGG RNA 2: GGGAAUGGAUCCACAUCUACGAAUUCGACCCAUAGAGAGGUUAUCCGCUCAAAGAGAUCGGAAGAGCACACGU", "Kd": "50.5 ± 22.5"},
      {"binder": "target 1 MT 5'PFS ACA 3'PFS UAG (mixed) RNA 1: CACCCGUGCAAAAAUGCAGGGGUCUAAAACUGAGCGGAUAACCUCUCUAUGG RNA 2: GGGAAUGGAUCCACAUCUACGAAUUCACACCAUAGAGAGGUUAUCCGCUCAUAGAGAUCGGAAGAGCACACGU", "Kd": "11.2 ± 4.95"},
      {"binder": "target 1 MT 5'PFS GGG 3'PFS GGU (mixed) RNA 1: CACCCGUGCAAAAAUGCAGGGGUCUAAAACUGAGCGGAUAACCUCUCUAUGG RNA 2: GGGAAUGGAUCCACAUCUACGAAUUCGGGCCAUAGAGAGGUUAUCCGCUCAGGUAGAUCGGAAGAGCACACGU", "Kd": "61 ± 14"}
    ]}
  ]
}
